Measured values from paper PMC4841919 (Neurobiology of aging, 2016).

Experiments:
[1] = molecular target: striatal-enriched tyrosine phosphatase STEP61 (endogenous, rat brain) (rat (endogenous in Sprague-Dawley rat brain)); experiment: non-reducing SDS-PAGE and immunoblot
[2] = molecular target: the molecule itself; experiment: non-reducing SDS-PAGE and immunoblot

striatal-enriched tyrosine phosphatase STEP61 (endogenous, rat brain) (enzyme), sequence (P35234 whole entry): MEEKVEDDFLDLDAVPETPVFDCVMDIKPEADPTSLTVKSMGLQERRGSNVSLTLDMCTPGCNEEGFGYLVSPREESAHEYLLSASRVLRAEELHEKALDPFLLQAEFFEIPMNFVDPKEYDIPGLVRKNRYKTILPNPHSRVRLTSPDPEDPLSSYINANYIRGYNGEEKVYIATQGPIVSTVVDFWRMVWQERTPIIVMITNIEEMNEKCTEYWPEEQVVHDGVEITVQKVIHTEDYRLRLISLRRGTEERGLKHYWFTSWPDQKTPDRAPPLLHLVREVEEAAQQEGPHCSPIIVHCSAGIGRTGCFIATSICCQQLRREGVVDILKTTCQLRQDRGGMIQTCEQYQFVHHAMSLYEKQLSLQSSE

dimer band after N-acetyl cysteine, percent of untreated aged control, cortex [1] | fold increase of the dimer band in aged rats, cortex [1] [fold] | fold increase of the dimer band in aged rats, hippocampus [1] [fold] | stoichiometry N [1] | Molecule | stoichiometry N [2]
59.4 % of control | 6.2 | 5.9 | 2 | striatal-enriched tyrosine phosphatase STEP61 (endogenous, rat brain) (enzyme) | 
 |  |  |  | V5- and myc-tagged STEP61 (wild type) (enzyme, UniProt P54830-1 1-541, looked up) MCCSERLLGLPQPVEMEAPDEAEGLPSKQKEMPPPPPPSPPSEPAQKLPPQGAGSHSLTVRSSLCLFAASQFLLACGVLWLSGHGHSWLQNTTDLISSSLTVLNHLGPVAWLGSGTWGIPSLLLVSLTVSLVIVTTLVWHLLKAPPEPPAPLPPEDRRQSVSRQPSFTYSEWMEEKVEDDFLDLDAVPETPVFDCVMDIKPETDPASLTVKSMGLQERRGSNVSLTLDMCTPGCNEEGFGYLVSPREESAHEYLLSASRVLRAEELHEKALDPFLLQAEFFEIPMNFVDPKEYDIPGLVRKNRYKTILPNPHSRVRLTSPDPEDPLSSYINANYIRGYSGEEKVYIATQGPIVSTVADFWRMVWQERTPIIVMITNIEEMNEKCTEYWPEEQVVHDGVEITVQKVIHTEDYRLRLISLRRGTEERSLKHYWFTSWPDQKTPDRAPPLLHLVREVEEAAQQEGPHCSPIIVHCSAGIGRTGCFIATSICCQQLRREGVVDILKTTCQLRQDRGGMIQTCEQYQFVHHAMSLYEKQLSLQSSE | ≥ 2
